B1: CAL1-V5 (in U2OS cells) [Drosophila melanogaster] / CENP-A-GFP-LacI (in U2OS cells) [Drosophila melanogaster] (parent complex)
chain 1: MANAVVDEETLEAMVYERSKAWSSKMADFASLEDGMEIDVAEFDNLFHGEDEDPDLDDVAKEAVEDNVPDEAKLEMGHINATSVTELTLILCANEDNEAKAEIEEILNQTVPVVEEHKRKWREAGLDRILDTFDEKQIEHHVGRWMRRHNSVYLEASPPKYLPPHHNSISDESDESMHSIDTARYIQQSRRRNAHMTNKNMTTIKMYRKHSHKRDELRAKYAYGDEQEHRHHMQAVLLRRRERERQLAYLASTPMQCVYSSGHHMRRKNLRKRRINSWMFDSASSSEEDTSFGGCDCHSCRRHYALSRSVYQSCPYGRGQREYHHRQMASRTMHTMRRQHTFDMEMDLRPRLPENECSCCNSDRLCSNVIHIANSSTEEWVVENRSNHLTQETQEKTRKQKHQPMDARKVSHQPVCSKGHEQKPLSSKATSVSKLVLSKEKYMQMFDSESSDEDNALAKKGLLCCSDKKKGMTFPTPNAAGKITHPTSSAKKAIRKEARPNGLAQIQEEGPTATNSPIESTYLPVAHMKSVSIDGSSGTSATFESPAKKAPKRGIRETSPLNGNELQQLISTIPIADEKASSLMEKVDNCIGRESFDDRNKDFMHMENSSTKTAVEKSTKQKRVSGKKSEIPKSIITNNEILEKNSTETLSEKQVAAKAKKQSVRKTGATGKPSTSRLKKSEKTKTTSSVTSTSKLEQVREEESDVSSEVLAKPKPQCSTTASILKQGGDGASNSEDDLQIALAMSKATYKEEQQKRKKTKREPSNKQPQSPAEKSMTVFNNQSVACNSTALANDTACYRVLPKRRGVKRAAAVSTTEEKTATNSSSSPTSSLEEMGSPTGGDPDCTVVTSTTGCEPPASERQEIPATIKITKRGILLHSPSAPEGASFTLTEQGLGKIIGERWARKYLKYHIGSRSFDSRHSVYYQPTPQLAAALSAPQDAQNIGNISGSSASDDDIFEQINRYGTVYSILENNSGDK
chain 2: MPRHSRAKRAPRPSANNSKSPNDDDTAFRSPEPEDGTDYGLEFTTSQLTLQDNNRRSSTLRRDAGRRQPAARDSSTSGEEEDQENRYPTTRSPQTRRMTVQQESKTRAAGPVAAQNQTRRRKAANPMSRAKRMDREIRRLQHHPGTLIPKLPFSRLVREFIVKYSDDEPLRVTEGALLAMQESCEMYLTQRLADSYMLTKHRNRVTLEVRDMALMAYICDRGRQF
B2: CAL1-HA (in S2 cells) [Drosophila melanogaster] / GFP-LacI-CENP-C (in S2 cells) [Drosophila melanogaster] (parent complex)
chain 1: B1 chain 1
chain 2: MSKPQNNDTLELDDILSQPVKDKERFAAFMMRKLAENKPAQNDNLFGNFKLDFDLDFEVPLIKKSQAKPKSKLPEVQPLGELVSKNSAATEKVNEPPVDQAPNENVPPRRSPTLSPNNRRSMRRSGNVPGSDKLRRHAIRRRSRSCGRQLLPEFEETVNLTRSISSPVNFLPEISSTPCTEKQKEEVAKNTTRVETDKPAEKPMELSQEPEPENPLQTKVTSPARNPILAAEIEQICKERQSSFHKNVLQLDYSGRAPYSRPPTPSSPSVAGLRRTYTMEKGPAPGQLLLSPSHRYDTPSKMPVVKAKRFNQELMVPDTPERQSHDPAWQSEPQPEFVVPETQPQDLGELVQTLSRSAISPIVVINTSNSNRSVRRDAVAMKSVPTSPVTALSSPPIAPSPRRSAAASPQKSIAQLPRVEENMDAIMTDDESDEHPSTVPLNLAPSGGNTTRQRRLRSSNRARATIESQESSMRLLNLHKSVNAKKSKPRKTAIPLNKAPSAPINGEQFARELTRMSNYEILDLRKRNSLNEIYPLNGHRNHRSEKLILEEEIQRELLRRNLMDEAEGLPKQQSSDDSNEDYIPVPPKTQSLRTKSNDRSQGRGRPRSTRRDLPMTTELVNYLGLSQTLETRRKSSKDGKRCLYTKGSSDHEDNDSLSPVKLPRLSKSIQIVPPPPVSLRYSQSLQNLPCSGKFDFDNVVMAAPPDFHDSVNSDAIEIAPPPPEYVVNTRGRSTSGRKSNKNDLVLPPPGYEGGQEEEHDERPSQPRCTAKELQQSTQNGRRAMENELVPPPIEYVEEENRNNEQSRRSTKNGNLVDRNTHNAVEYCEPPEPPEYDDSDHGQASILRRSGKKLQHSKQSVQKSNKEQIIAPSYENNEDYDSDEEPIYNEEYGKEESQNKNVTRRKSDKDEMASHTLECIEGPDPNWNSSCNKQNRNHQNASKSKENDKLANRSSKSQKLSNPRQNAVGTEKSVALSNRGEECTEKSSDVMESLRVNTPTPPIDQNSDDVPSRNPSPSRTLLSDDVPSTSRAALEFLQRSQNMSKSRPPDESSADVVFKKPLAPAPRAKSKKGKSEVDKLKLAKMPVEAEELNTTGIRRSKRGQVPLQMSWCHTMDPSKFNFMSGFIEPRSKNSKTKKGNLSKAKKASATKPKPTVEKNLPDNRGPLCSSTPRISEKLPGAIPHSESLGLSTLTWEETEVQAEAEKVPKKRGRPKKAVGGVQTDTEAEPEPEPEPMISSVAPLTSDQEEPDVPDEQAPYTEAALGPVVFSTPLRDEQEEASTKLMQWLRGVGDAPPSASMSDENASVSSANELIFCQVDGIDYAFYNTKEKAMLGYMRFKPYQKRSMKQAKVHPLKLLVQFGEFNVETLAVGEEKEVHSVLRVGDMIEIDRGTRYSIQNAIDKVSVLMCIRS
B3: His-CAL1(1-160) [Drosophila melanogaster] / CENP-A(101-225)-H4 [Drosophila melanogaster] (parent complex)
chain 1: MANAVVDEETLEAMVYERSKAWSSKMADFASLEDGMEIDVAEFDNLFHGEDEDPDLDDVAKEAVEDNVPDEAKLEMGHINATSVTELTLILCANEDNEAKAEIEEILNQTVPVVEEHKRKWREAGLDRILDTFDEKQIEHHVGRWMRRHNSVYLEASPPK
chain 2: QQESKTRAAGPVAAQNQTRRRKAANPMSRAKRMDREIRRLQHHPGTLIPKLPFSRLVREFIVKYSDDEPLRVTEGALLAMQESCEMYLTQRLADSYMLTKHRNRVTLEVRDMALMAYICDRGRQF
chain 3: not shown

Variants of: B1
Test: LacO/LacI tethering assay in U2OS cells (fluorescence intensity of CAL1-V5 at the tethering site); parent: 1.1e+03; read off a plot

Row | Variant | response [a.u.]
1 | chain 1 W22R, chain 1 F29R | ~20
2 | chain 1 W22A, chain 1 F29A | ~110

Variants of: B2
Test: LacO/LacI tethering assay in U2OS cells (fluorescence intensity of CAL1-V5 at the tethering site); parent: 2.1e+03; read off a plot

Row | Variant | response [a.u.]
3 | chain 2 L1357E, chain 2 M1407E | ~490
4 | chain 2 F1324R | ~300

Variants of: B2
Test: LacO/LacI tethering assay in Drosophila S2 cells (fluorescence intensity of CAL1-HA at the tethering site); parent: 650; read off a plot

Row | Variant | response [a.u.]
5 | chain 2 L1357E, chain 2 M1407E | ~60
6 | chain 2 F1324R | ~35

Variants of: B2
Test: LacO/LacI tethering assay in U2OS cells (fluorescence intensity of CAL1-V5 at the tethering site); parent: 2.1e+03; read off a plot
Remark: another data set of the same source

Row | Variant | response [a.u.]
7 | chain 1 I900R, chain 1 K907A, chain 1 Y908A | ~300

Variants of: B2
Test: LacO/LacI tethering assay in Drosophila S2 cells (fluorescence intensity of CAL1-HA at the tethering site); parent: 650; read off a plot
Remark: another data set of the same source

Row | Variant | response [a.u.]
8 | chain 1 I900R, chain 1 K907A, chain 1 Y908A | ~12

Variants of: B3
Test: Ni-NTA pull-down, band intensity quantification; parent: 4.1; read off a plot

Row | Variant | response
9 | chain 2 S54Q, chain 2 M86A, chain 2 Q90G | ~0.85 ratio CENP-A101-225/H4:CAL11-160
10 | chain 2 M86A | ~3.6 ratio CENP-A101-225/H4:CAL11-160
11 | chain 2 S54Q, chain 2 M86A | ~2.9 ratio CENP-A101-225/H4:CAL11-160
12 | chain 2 S54Q | ~3.5 ratio CENP-A101-225/H4:CAL11-160
13 | chain 2 Q90G | ~2.8 ratio CENP-A101-225/H4:CAL11-160

Variants of: B3
Test: Ni-NTA pull-down, band intensity quantification; parent: 3; read off a plot

Row | Variant | response
14 | chain 1 F43R | ~1.8 ratio CENP-A101-225/H4:CAL11-160
15 | chain 1 W22A, chain 1 F29A | ~0.38 ratio CENP-A101-225/H4:CAL11-160
16 | chain 1 F29R | ~2.6 ratio CENP-A101-225/H4:CAL11-160
17 | chain 1 F29A | ~3.2 ratio CENP-A101-225/H4:CAL11-160
18 | chain 1 W22R, chain 1 F29R | ~0.42 ratio CENP-A101-225/H4:CAL11-160
19 | chain 1 W22R | ~0.7 ratio CENP-A101-225/H4:CAL11-160

— paper PMC7110144 (2020)
